From US20260132197A1 (NANJING LEGEND BIOTECH, published 2026)
Numbering of substitutions follows the chain as printed. In names and notes the source's numbering stands.

Assays:
[1] = biological target: T1, human CD47 on cells (SHP-77 tumor cells, human red blood cells, CCRF-CEM cells, human CD47 CHO-K1 stable cell … (human, UniProt Q08722 19-323)); assay: flow cytometry on human CD47 CHO-K1 cells; plateau not reached, not accurate
T1 construct: whole, on cells; also called RBC

[2] = biological target: T1, human CD47 on cells (SHP-77 tumor …); assay: flow cytometry on human RBCs;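 further: antibody binding measured by flow cytometry as geometric mean fluorescence intensity over a range of antibody concentrations, with EC50 and maximum taken from a sigmoidal dose-response fit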
[3] = biological target: T2, wild type human CD47 (Acro Biosystems, cat. no. CD7-H5227) (human, UniProt Q08722 19-139); assay: SPR, IgG captured, CD47 in flow; exp 1;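 further: biacore T200 SPR using IgG from supernatants of transfected HEK293 cells, rate constants fitted to association and dissociation curves, Kd derived from koff over kon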
T2 construct: Bought protein used as SPR analyte; also called Human CD47 wt; wild-type CD47

[4] = biological target: T3, Human CD47-C33G (human, UniProt Q08722 19-135); assay: SPR, IgG captured, CD47 in flow; exp 1;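 further: biacore T200 SPR using IgG from supernatants of transfected HEK293 cells, rate constants fitted to association and dissociation curves, Kd derived from koff over kon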
T3 construct: also called CD47 mutein with C33G mutation

[5] = biological target: T4, cynomolgus CD47 on CHO-K1 stable cell line (cynomolgus, UniProt A0A5F8AK49 19-323 (rhesus entry)); assay: flow cytometry on cynomolgus CD47 CHO-K1 cells; plateau not reached, not accurate
T4 construct: whole, on cells; also called cynomolgus CD47/CHO-K1

[6] = biological target: T1, human CD47 on cells (SHP-77 tumor …); assay: flow cytometry on SHP-77 cells
[7] = biological target: T3, Human CD47-C33G; assay: SPR, IgG captured, CD47 in flow; exp 2; estimated, out of instrument limit
[8] = biological target: T2, wild type human CD47 (Acro Biosystems, …); assay: SPR, IgG captured, CD47 in flow; exp 2
[9] = biological target: T3, Human CD47-C33G; assay: SPR, IgG captured, CD47 in flow; exp 2
[10] = biological target: T1, human CD47 on cells (SHP-77 tumor …); assay: flow cytometry on human CD47 CHO-K1 cells
[11] = biological target: T1, human CD47 on cells (SHP-77 tumor …); assay: cell-based or functional assay
[12] = biological target: T4, cynomolgus CD47 on CHO-K1 stable cell …; assay: flow cytometry on cynomolgus CD47 CHO-K1 cells
[13] = biological target: T1, human CD47 on cells (SHP-77 tumor …); assay: flow cytometry on human RBCs; plateau not reached, not accurate;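 on Fitted Maximal MFI: antibody binding measured by flow cytometry as geometric mean fluorescence intensity over a range of antibody concentrations, with EC50 and maximum taken from a sigmoidal dose-response fit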
[14] = biological target: T2, wild type human CD47 (Acro Biosystems, …); assay: SPR, IgG captured, CD47 in flow; exp 4
[15] = biological target: T3, Human CD47-C33G; assay: SPR, IgG captured, CD47 in flow; exp 4
[16] = biological target: T2, wild type human CD47 (Acro Biosystems, …); assay: SPR, IgG captured, CD47 in flow; exp 3;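 further: other target is a CD47 mutein carrying C33G, used to obtain true monovalent affinity, with kon and koff fitted from SPR binding curves and KD derived from both rates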
[17] = biological target: T3, Human CD47-C33G; assay: SPR, IgG captured, CD47 in flow; exp 3;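 further: other target is a CD47 mutein carrying C33G, used to obtain true monovalent affinity, with kon and koff fitted from SPR binding curves and KD derived from both rates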
[18] = biological target: T2, wild type human CD47 (Acro Biosystems, …); assay: SPR, IgG captured, CD47 in flow; exp 4; remark: listed apart in the source
[19] = biological target: T3, Human CD47-C33G; assay: SPR, IgG captured, CD47 in flow; exp 4; remark: listed apart in the source
[20] = biological target: T2, wild type human CD47 (Acro Biosystems, …); assay: SPR, IgG captured, CD47 in flow; exp 2; remark: listed apart in the source
[21] = biological target: T3, Human CD47-C33G; assay: SPR, IgG captured, CD47 in flow; exp 2; remark: listed apart in the source
[22] = biological target: T3, Human CD47-C33G; assay: SPR, IgG captured, CD47 in flow; exp 2; estimated, out of instrument limit; remark: listed apart in the source
[23] = biological target: T3, Human CD47-C33G; assay: SPR, IgG captured, CD47 in flow; exp 2; remark: listed apart in the source

B1: 108VH5.M6 / 108VL1.M5 (antibody, human IgG4 S228P, kappa, V domains shown)
VH: EVQLVQSGAEVKKPGASVKVSCKASGYTFTHHYMHWVRQAPGQGLEWMGMIDASDSETRLSQKFKDRVTMTRDTSTSTVYMELSSLRSEDTAVYYCARLGRYYFDYWGQGTLVTVSS
VL: EIVLTQSPATLSLSPGERATLSCRASQSVSSYLAWYQQKPGQAPRLLIYGASNRATGIPARFSGSGSGTDFTLTISSLEPEDFAVYYCGESYGHLYTFGGGTKVEIKR
notes: Full-length IgG4 (S228P), kappa; also called VH5.M6 VL1.M5
In the case of B1, the EC50 [1] is reported as 20 nM, the EC50 [2] is reported as 11.1 nM and the “Fitted Maximal MFI” value [2] is reported as 9460 MFI. The Kd [3] was 8 nM, the koff [3] was 0.0039 s⁻¹ and the kon [3] was 490000 M⁻¹ s⁻¹. The Kd [4] was 800 nM, the koff [4] was 0.097 s⁻¹ and the kon [4] was 120000 M⁻¹ s⁻¹. The EC50 [5] was 22.5 nM, the EC50 [6] was 25.1 nM and the “Fitted Maximal MFI” value [6] was 6250 MFI.

B2: 108VH5.M11 / 108VL1.M5 (antibody, human IgG4 S228P, kappa, V domains shown)
VH: B1 VH with M34I, L60Y, S61A, K65Q, D66G
VL: B1 VL
notes: Full-length IgG4 (S228P), kappa; also called VH5.M11 VL1.M5
B2 was tested, and the EC50 [2] was 178 nM, the “Fitted Maximal MFI” value [2] was 1540 MFI and the Kd [7] was greater than 530 nM. For the same binder, the koff [7] was greater than 0.1 s⁻¹, the Kd [8] was 12 nM and the koff [8] was 0.0032 s⁻¹. It also gave a kon [8] of 260000 M⁻¹ s⁻¹, a kon [9] of 190000 M⁻¹ s⁻¹ and an EC50 [6] of 797 nM. For the same binder, the “Fitted Maximal MFI” value [6] was 4000 MFI.

B3: 108VH5.M22 / 108VL1.M5 (antibody, human IgG4 S228P, kappa, V domains shown)
VH: B1 VH with Y33W, S56I, L60Y, S61A, K65Q, D66G
VL: B1 VL
notes: Full-length IgG4 (S228P), kappa; also called VH5.M22 VL1.M5
In the case of B3, the EC50 [10] is reported as 3.6 nM, the “CCRF-CEM phagocytosis EC50” value [11] is reported as 0.37 nM and the “CCRF-CEM phagocytosis, Phagocytosis (%)” value [11] is reported as 59.4%. For the same binder, the EC50 [12] was 3.6 nM, the EC50 [13] was 10.1 nM and the Kd [14] was 6.1 nM. The koff [14] was 0.0029 s⁻¹, the kon [14] was 480000 M⁻¹ s⁻¹ and the Kd [15] was 35 nM. The koff [15] was 0.0068 s⁻¹, the kon [15] was 200000 M⁻¹ s⁻¹ and the EC50 [6] was 8.4 nM. For the same binder, the “Fitted Maximal MFI” value [6] was 41600 MFI.

B4: 108VH5.M15 / 108VL1.M5 (antibody, human IgG4 S228P, kappa, V domains shown)
VH: B1 VH with Y33W, M34I, E57S, L60Y, S61A, K65Q, D66G
VL: B1 VL
notes: Full-length IgG4 (S228P), kappa; also called VH5.M15 VL1.M5
B4 was tested, and the EC50 [2] was 155 nM, the “Fitted Maximal MFI” value [2] was 926 MFI and the Kd [7] was greater than 630 nM. The koff [7] was greater than 0.1 s⁻¹, the Kd [8] was 22 nM and the koff [8] was 0.0048 s⁻¹. The kon [8] was 220000 M⁻¹ s⁻¹, the kon [9] was 160000 M⁻¹ s⁻¹ and the EC50 [6] was 396 nM. For the same binder, the “Fitted Maximal MFI” value [6] was 3680 MFI.

B5: 108VH10.Mk / 108VL10.Me (antibody, V domains shown)
VH: EVQLVESGGGLVQPGGSLRLSCAASGFTFSHHWIHWVRQAPGKGLEWVAMIDASDSETRLSQKVKDRFTISADTSKNTAYLQMNSLRAEDTAVYYCSRLGRYYFDYWGQGTLVTVSS
VL: DIQMTQSPSSLSASVGDRVTITCRASQSISSYLNWYQQKPGKAPKLLIYGASSRYSGVPSRFSGSRSGTDFTLTISSLQPEDFATYYCGESYGHLYTFGQGTKVEIK
notes: 4D5-framework series; also called VH10.Mk VL10.Me
In the case of B5, the EC50 [1] is reported as 5.4 nM, the EC50 [2] is reported as 3.9 nM and the “Fitted Maximal MFI” value [2] is reported as 21700 MFI. The Kd [16] was 9 nM, the koff [16] was 0.0086 s⁻¹ and the kon [16] was 950000 M⁻¹ s⁻¹. It also gave a Kd [17] of 87 nM, a koff [17] of 0.019 s⁻¹ and a kon [17] of 210000 M⁻¹ s⁻¹. The “CCRF-CEM phagocytosis EC50” value [11] was 0.29 nM, the “CCRF-CEM phagocytosis, Phagocytosis (%)” value [11] was 57.6% and the EC50 [5] was 6.4 nM. The EC50 [6] was 5.3 nM and the “Fitted Maximal MFI” value [6] was 30000 MFI.

B6: 108VH10.Mq / 108VL10.Me (antibody, V domains shown)
VH: B5 VH with Q62D, K63S, D66G
VL: B5 VL
notes: 4D5-framework series; constant regions not restated for this series; also called VH10.Mq VL10.Me
With B6 the EC50 [1] was 6.4 nM, the EC50 [2] was 3.9 nM and the “Fitted Maximal MFI” value [2] was 19400 MFI. The “CCRF-CEM phagocytosis EC50 (nM); plateau not reached” value [11] was 2.3 nM, the EC50 [5] was 8.4 nM and the Kd [18] was 7.5 nM. It also gave a koff [18] of 0.0045 s⁻¹, a kon [18] of 600000 M⁻¹ s⁻¹ and a Kd [19] of 120 nM. It also gave a koff [19] of 0.024 s⁻¹, a kon [19] of 190000 M⁻¹ s⁻¹ and an EC50 [6] of 8 nM. The “Fitted Maximal MFI” value [6] was 27400 MFI.

B7: 108VH10.Mc / 108VL10.M1 (antibody, V domains shown)
VH: B5 VH with F27Y, T28S, S30T, H35S, A53P, V64F
VL: B5 VL with Q27E, S28N, I29V, S30G, S31T, L33I, N34S, S53N, S56T
notes: 4D5-framework series; constant regions not restated for this series; also called VH10.Mc VL10.M1
Work on B7 yielded a Kd [20] of 21 nM, a koff [20] of 0.0054 s⁻¹ and a kon [20] of 250000 M⁻¹ s⁻¹. The kon [21] was 61000 M⁻¹ s⁻¹, the Kd [22] was greater than 1600 nM and the koff [22] was greater than 0.1 s⁻¹.

B8: 108VH10 / 108VL10.Mb (antibody, V domains shown)
VH: B5 VH with F27Y, T28S, S30T, A53P, V64F
VL: B5 VL with Q27E, S28N, I29V, S30G, S31T, L33I, N34S, G50A, S53N, S56T
notes: 4D5-framework series; constant regions not restated for this series; also called VH10 VL10.Mb
B8 was tested, and the Kd [20] was 38 nM, the koff [20] was 0.011 s⁻¹ and the kon [20] was 290000 M⁻¹ s⁻¹. The Kd [21] was 330 nM, the koff [21] was 0.016 s⁻¹ and the kon [21] was 47000 M⁻¹ s⁻¹. The “fold reduction of mono-valent binding affinity against the straight-graft antibody” value [23] was 7.7 fold.

B9: 108VH10.Mf / 108VL10.M1 (antibody, V domains shown)
VH: B5 VH with F27Y, T28S, S30T, A53P, S61V, Q62D, K63S, D66G
VL: B5 VL with Q27E, S28N, I29V, S30G, S31T, L33I, N34S, S53N, S56T
notes: 4D5-framework series; constant regions not restated for this series; also called VH10.Mf VL10.M1
B9 gave a Kd [20] of 30 nM, a koff [20] of 0.0071 s⁻¹ and a kon [20] of 230000 M⁻¹ s⁻¹. It also gave a Kd [21] of 290 nM, a koff [21] of 0.014 s⁻¹ and a kon [21] of 49000 M⁻¹ s⁻¹. For the same binder, the “fold reduction of mono-valent binding affinity compared to 108VH10” value [23] was 6.7 fold.

B10: 108VH10.Mr / 108VL10.Me (antibody, V domains shown)
VH: B5 VH with S61V, Q62D, K63S, D66G
VL: B5 VL
notes: 4D5-framework series; constant regions not restated for this series; also called VH10.Mr VL10.Me
For B10, the EC50 [1] was 15.7 nM, the EC50 [2] was 8.1 nM and the “Fitted Maximal MFI” value [2] was 15700 MFI. For the same binder, the “CCRF-CEM phagocytosis EC50” value [11] was 0.43 nM, the “CCRF-CEM phagocytosis, Phagocytosis (%)” value [11] was 49.8% and the EC50 [5] was 49.9 nM. It also gave a Kd [18] of 8.8 nM, a koff [18] of 0.0031 s⁻¹ and a kon [18] of 360000 M⁻¹ s⁻¹. For the same binder, the Kd [19] was 160 nM, the koff [19] was 0.025 s⁻¹ and the kon [19] was 150000 M⁻¹ s⁻¹. The EC50 [6] was 14.4 nM and the “Fitted Maximal MFI” value [6] was 25400 MFI.
